Target: NS5A domain I-Δh (HCV NS5A N-terminal domain) (Hepatitis C virus) (UniProt Q9WMX2)
Experiment: EMSA
Details: approximate Kd, non-specific RNA sequence; text says NS5A, construct taken as the purified domain I-Δh

UniProt Q9WMX2, sequence (Q9WMX2 1997-2188, tags or fused parts left off): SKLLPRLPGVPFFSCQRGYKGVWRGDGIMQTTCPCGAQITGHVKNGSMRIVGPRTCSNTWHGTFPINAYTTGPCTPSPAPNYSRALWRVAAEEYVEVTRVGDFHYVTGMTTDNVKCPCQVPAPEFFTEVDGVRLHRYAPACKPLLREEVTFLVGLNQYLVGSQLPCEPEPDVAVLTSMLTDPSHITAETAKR

**Q.** Which Kd does the source give for “non-specific ssRNA (plasmid polylinker transcript)” here?
**A.** 10 nM

Reference: US20090004111
